In publication PMC10570122 (iScience, 2023):

Tests used:
[1] = target: T1, SARS-CoV-2 WT soluble RBD (residues 319-541) (SARS-CoV-2 Wuhan-Hu-1, UniProt P0DTC2); test: ELISA; conditions: both partners purified
T1 construct: also called WT RBD; WT D614G RBD gene fragment

[2] = target: T2, SARS-CoV-2 WT stabilized soluble spike protein, hexahistidine-tagged (SARS-CoV-2 Wuhan-Hu-1, UniProt P0DTC2, stabilised); test: BLI; conditions: both partners purified
T2 construct: also called WT SARS-CoV-2 S

B1: COVA309-22 monoclonal antibody (human IgG1) (antibody, V domains shown)
VH: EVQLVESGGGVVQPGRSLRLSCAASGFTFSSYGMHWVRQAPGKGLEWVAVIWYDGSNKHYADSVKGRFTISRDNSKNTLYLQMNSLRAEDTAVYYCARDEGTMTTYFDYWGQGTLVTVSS
VL: EIVLTQSPSSLSASVGDRVTITCRASQSISSYLNWYQQKPGKAPKLLIYDASSLQSGVPSRFSGSGSGTDFTLTISSLQPEDFATYYCQQSYSTPPWTFGQGTKVEIK
B1: binds [1]; binds [2].
